Drawing on article doi:10.1101/2024.11.13.623448, this text covers percent of beads that bound microtubules for 1 substance.

For test [1], the target named is nucleosome core particle: Cse4, H2A, H2B, H4 histone octamer wrapped with Widom 601 DNA (S. cerevisiae | K. lactis) (UniProt P36012). The test can be described thus: optical trap bead-microtubule binding assay; His6-NCPs (40 nM) held on polystyrene beads by anti-His6 antibody; 10 nM OA or 20 nM Mif2, 10 nM 2D-MIND, 10 nM Ndc80c, 5 nM Dam1c free in solution; bead brought to the dynamic plus end of a surface-anchored microtubule and released from the trap; 1x BRB80, 1 mM GTP, 16 uM tubulin, room temperature.

Test [2] deals with nucleosome core particle: Cse4, H2A, H2B, H4 histone octamer wrapped with chimeric centromeric DNA (CCEN) (S. cerevisiae | K. lactis) (UniProt P36012). Described as above.

Regarding “Mif2-linker-(27-392)MBP (from UniProt P35201 1-549) (natural protein)”, the percent of beads that bound microtubules in test [1] and in test [2] was more than 78% in each case.
